Measurements taken from the nanobody polyreactivity screen of Harvey et al. (2022).

Assay: yeast display, Sf9 membrane polyspecificity reagent, FACS + sequencing; frameworks hold sequencing errors
In short: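 Genes from sorted yeast were amplified by colony PCR, read by MiSeq 2 × 250 sequencing and filtered on CDR length. These cells carried a synthetic nanobody library in Saccharomyces cerevisiae BJ5465 and were sorted by FACS into low and high (top ~1%) gates on anti-HA and streptavidin fluorescence. Polyreactivity is labelled according to the gate of origin.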

Sequence	polyreactivity (PSR sort gate)
QVQLVESGGGLVQAGGSLRLSCAASGFTFGPKAMGWYRQAPVKERELVAAITFRGDSTYYADSVKVRFTISRDYAKNTVYLQMNCLKPEDTAVYYCATHDRWHHRSLPYEYWGQGTQVTVSS	low polyreactivity
QVQLVESGGGLVQAGGSLRLSCAASGSILWLYVMGWYRQAPGKERELVATITSSGGSTYYADSVKGRFTISRDNAKNTVYLQMNSLKPEDTAVYYCAAQTYYSYDYWGQGTQVTVSS	low polyreactivity
PVQLQESGGGLVQAGGSLRLSCAARGSIFKVVDMGLYRQAPAKEREFVATIGEGGNTYYADSVKGRFTISRDNAKNTVYLQMNSLKPEDTAVYFSAVVLGTSYRYTYWGQGTQVTVSS	low polyreactivity
QVQLVESGGGLVQAGGSLRLSCAASGRTFYRYAMGWYRQAPGKERELVAAIRWSGGSTYYADSVKGRFTISRDNAKNTVYLQMNSLKPEDTAVYYCAKDTFRGYSPVKYDFWGQGTQVTVSS	low polyreactivity
QVQLVESGGGLVQAGGSLRLSCAASGLIFSYNDMGWYRQAPGKERELVASISNGGSTNYADSVKGRFTISRDNAKNTVYLQMNSLKPEDTAVYYCAAEGALGEVYWWNVRRYYWGQGTQVTVSS	low polyreactivity
QVQLVESGGGLVQAGGSLRLSCAASGRIFSRYTMGCYRQAPGKERELVAAISSRGGSTYYADSVKGRFTISRDNAKNTVYLQMNSLKPEDTAVYYCNTPSYSGSSPYDHWGQGTQVTVSS	high polyreactivity
QVQLVESGGGLVQAGGSLRLSCAASGSIFGYYAMGWYRQTPGKERELVAAIRWRGGRTYYADSVKGRFTISRDNAKNTVYLQMNSLKPEDTAVYYCNTRRTGRRSTTPGDYWGQGTQVTVSS	high polyreactivity
QVQLVESGGGLVQAGGSLRLSCAASGSIFTRNAMGWYRQAPGKERELVATIRKNGASTTYADSVKGRFTISRDNAKNTVYLQMNSLKPEDTAVSYCARDHHTKYNYWGQGTQVTVSS	low polyreactivity
QVQLVESGGGLDQAGGSLRLTCAASGNTSEYYAMGWSRQAPGKERQLVAAIRSDVRTYYADSVKGRFTISRDNAKNTVYLQMNSLKPEDTAVYYCNADKSAWDYYLQTFNYWGQGTQVTVSS	high polyreactivity
QVQIVESGGGLIQEGGSLRLSCAASGSTFYYYAMGWYRPAPGKERELVAAIDRDDRTNYADSVKGRFTSSRDNAQNTVYLQMTSLKPEDTAVYYCAAVEIYEYDYWGQGTQVTVSS	low polyreactivity
QVQLVESGGGLVQAGGSLRLSCAASGSILIVYAMGWYRQAPGKERELVAAITRGGRTNYADSVKGRFTISRDYAKNTVYLQMNSLKPEDPAVYYCAAYTESYGGSDYDYWGQGTQVTVSS	high polyreactivity
QVKLVESAGGLVQAGGSLRLSCPASGRTFYRYVMGWSRQEPGKERELVAAITPGGSTYADSVKGRFTISRDNAKNTVYLQMNSLKPEDTAVYYCNKRKASSSGYNYWGQGTQVTVSS	low polyreactivity
QVQLVESGGGLVQAGGSLRLSCAASGRTFLRNDMVWYRQAPGKERELVAAISYSGGRTYYAVSVKGRFTISRDNAKNTVYLQMNSLKPEDTAVYYCAADRFFKAIRPYDYWGQGTQVTVSS	high polyreactivity
QVQLVESGGGLVKAGGSLRLSCAASGLTFRNNAMGWYRQAPGIERELVASINSGRSTNYADSVKGRFTISRDNAKNTVYLQMNSLKREDTAVYVCATRYYWYTRDSYDYWGQGTQVTVSS	low polyreactivity
QVQLVESGGGLVQAGGSLRLSCAASGFIFNRNAMGWYRQAPGKEREFVAAISTRGAGTYYADSVKGRFTISRDNAKNTVYLQMNSLKPEDTAVYYCAADKFRYGYYNRYSKVGYDYWGQGTQVTVSS	high polyreactivity
QVQLVESGGGLVQAVGSHRLSCAASGRIFGNNVMGWYRQEPGKERELVAANTFSGTSTYYADSVKGRFTISRDNAKNTVYLQMNSLKPEDTAVYYCAKYRYADYYSPGYDYWGQGTQVTVSS	low polyreactivity
QVQLVESGGGLVQAGGSLRLSCAASGRTSKYYAMGWYRQAPGKERELVAAITGTGGSTYYADSVKGRFTISRDNAKNTVYLQMNSLKPEDTAVYYCAALRKSYTYDSWGQGTQVTVSS	high polyreactivity
HVQLVESGGGLVQAGVSLRLSCAASGRIFVLYTRGWYRQAPGKDRELVAAISRRGGNTNYADSVKGRFTISRDNAMNTVYLQMNSLKPEDTAVYYCNARWTGARYYYYPMDYWGQGTQVTVSS	high polyreactivity
QVQLVESGGGLVQAGGSLRLSCAASGIIFGRYTMGWYRQAPGKERELVAAITSSGITYYADSVKGRFTISRDNAKNTVYLQMNSLKPEDTAVYYCAAEYNWYDYWGQGTQVTVSS	low polyreactivity
QVQLVESGGGLFQAGGSLRLSCAASGRTFYYYAMGWYRQAPGKERELVASISRTGGPTSYADSVKGRFTISRDTAKNPVYLQMNSLKPEDTAVYYCATRRRVYSGYDYWGQGTQVTVSS	high polyreactivity
QVQLVESGGGLVQAGGSLRLSCAASGNTFYYNAMGWYRQAPGKEREFVATITESGTSTYYADSVKGRFTISRDNAKNTVYLQMNSLKPEDTAVYYCAAQYWYVGGIAWYDYWGQGTQVTVSS	low polyreactivity
QVQLVESGGGLVQAGGSLRLSCAASGSTFTGNAMGWYRQAPGKERELVASINGSSGSTYYADSVKGRFTISRDNAKNTVYFQMNSLKPEDTAVYYCAKDSFLHFPRVGWVGLEYWGQGTQVTVSS	low polyreactivity
